{
  "source": "paper doi:10.1101/2024.04.26.591406",
  "biological_target": "Vibrio His-FliFG fusion protein (FliF-FliG fusion) with the FliG-G214S mutation (Vibrio alginolyticus)",
  "test": "cryo-EM structure",
  "note": "Where “and” joins values, the source holds several entries; their conditions need not be identical. Identical values can stand only once.",
  "data": [
    {"substance": "Vibrio His-FliFG fusion protein (FliF-FliG fusion) with the FliG-G214S mutation", "values": [
      {"measurement": "stoichiometry N", "value": "35 subunits and 34 subunits"}
    ]}
  ]
}
